Results from the RNAGym collection of RNA variant scans (doi:10.7554/elife.90254).

B1: LINE1-full (parent)
chain: UACGUAGGUGGUUUUCCCCUGAUAGUGCUAAGGGGGCCUGGAAGUUUGGACUGGGCAGAGCUCAACACAGCGUGGCAAAGUGGCUGUGGCUAGACUGCCUCUCUGGAUUCCUCGUCACUCAGCAGGGCAUCUCUGAGAGAAAUGCC

Variants of: B1
Assay: self-cleavage, relative activity (ratio to wild type); higher = more cleavage; in vitro, sequencing; the parent is a self-cleaving ribozyme

In order of rising self-cleavage:
1. UACGCAGGUGGUUUUCCCCUGAUAGUGCUAAGGGGGCCUGGAAGUUUGGACUGGGCAGAGCUCAACACUGCGUGGCAAAGUGGCUGUGGCUAGACUGCCUCUCUGGAUUCCUCGUCACUCAGCAGGGCAUCUCUGAGAGAAAUGCC  0.14
2. UACGCAGGUGGUUUUCCCCUGAUAGUGCUCAGGGGGCCUGGAAGUUUGGACUGGGCAGAGCUCAACACAGCGUGGCAAAGUGGCUGUGGCUAGACUGCCUCUCUGGAUUCCUCGUCACUCAGCAGGGCAUCUCUGAGAGAAAUGCC  0.28
3. UACGCAGGUGGUUUUCCCCUGAUAGUGCUAAGGGGGCCUGGAAGUUUGGACUGGGCAGGGCUCAACACAGCGUGGCAAAGUGGCUGUGGCUAGACUGCCUCUCUGGAUUCCUCGUCACUCAGCAGGGCAUCUCUGAGAGAAAUGCC  0.32
4. UACGCAGGUGGUUUUCCCCUGAUAGUGCUAAGGGGGCCUGGAAGUUUGGACUGGGCAGAGCUCAACACAGCGUGGCAAAGUGGCUGUGGCUAGGCUGCCUCUCUGGAUUCCUCGUCACUCAGCAGGGCAUCUCUGAGAGAAAUGCC  0.46
5. UACGCAGGUGGUUUUCCCCUGAUAGUGCUAAGGGGGCCUGGAAGUUUGGACUGGGCAGAGCUCAACUCAGCGUGGCAAAGUGGCUGUGGCUAGACUGCCUCUCUGGAUUCCUCGUCACUCAGCAGGGCAUCUCUGAGAGAAAUGCC  0.47
6. UACGCAGGUGGUUUUCCCCUGAUAGUGCUAAGGGGGCCUGGAAGUUUGGACUGGGCCGAGCUCAACACAGCGUGGCAAAGUGGCUGUGGCUAGACUGCCUCUCUGGAUUCCUCGUCACUCAGCAGGGCAUCUCUGAGAGAAAUGCC  0.49
7. UACGCAGGUGGUUUUCCCCUGAUAGUGCUAAGGGGGCCUGGAAGUUUGGACUGGGCAGAGCUCAACACAGCGUGGCUAAGUGGCUGUGGCUAGACUGCCUCUCUGGAUUCCUCGUCACUCAGCAGGGCAUCUCUGAGAGAAAUGCC  0.73
8. UACGCAGGUGGUUUUCCCCUGAUAGUGCUGAGGGGGCCUGGAAGUUUGGACUGGGCAGAGCUCAACACAGCGUGGCAAAGUGGCUGUGGCUAGACUGCCUCUCUGGAUUCCUCGUCACUCAGCAGGGCAUCUCUGAGAGAAAUGCC  0.74
9. UACGCAGGUGGUUUUCCCCUGAUAGUGCUACGGGGGCCUGGAAGUUUGGACUGGGCAGAGCUCAACACAGCGUGGCAAAGUGGCUGUGGCUAGACUGCCUCUCUGGAUUCCUCGUCACUCAGCAGGGCAUCUCUGAGAGAAAUGCC  0.75
10. UACGCAGGUGGUUUUCCCCUGAUAGUGCUAAGGGGGCCUGGGAGUUUGGACUGGGCAGAGCUCAACACAGCGUGGCAAAGUGGCUGUGGCUAGACUGCCUCUCUGGAUUCCUCGUCACUCAGCAGGGCAUCUCUGAGAGAAAUGCC  0.75
11. UACGCAGGUGGUUUUCCCCUGAUAGUGCUAUGGGGGCCUGGAAGUUUGGACUGGGCAGAGCUCAACACAGCGUGGCAAAGUGGCUGUGGCUAGACUGCCUCUCUGGAUUCCUCGUCACUCAGCAGGGCAUCUCUGAGAGAAAUGCC  0.78
12. UACGCAGGUGGUUUUCCCCUGAUAGUGCUAAGGGGGCCUGGAAGUUUGGACUGGGCAGAGCUCAACACAGCGUGGCAAAGUGGCUGUGGCUAGACUGCCUCUCUGGAUUCCUCGUCACUCAGCCGGGCAUCUCUGAGAGAAAUGCC  0.8
13. UACGCAGGUGGUUUUCCCCUGAUAGUGCUAAGGGGGCCUGGAAGUUUGGACUGGGCAGAGCUCAACACAGCGUGGCAAAGUGGCUGUGGCUAGACUGCCUCUCUGGAUUCCUCGUCACUCUGCAGGGCAUCUCUGAGAGAAAUGCC  0.86
14. UACGCAGGUGGUUUUCCCCUGAUAGUGCUAAGGGGGCCUGGAAGUUUGGGCUGGGCAGAGCUCAACACAGCGUGGCAAAGUGGCUGUGGCUAGACUGCCUCUCUGGAUUCCUCGUCACUCAGCAGGGCAUCUCUGAGAGAAAUGCC  1.01
15. UACGCAGGUGGUUUUCCCCUGAUAGUGCUAAGGGGGCCUGGUAGUUUGGACUGGGCAGAGCUCAACACAGCGUGGCAAAGUGGCUGUGGCUAGACUGCCUCUCUGGAUUCCUCGUCACUCAGCAGGGCAUCUCUGAGAGAAAUGCC  1.04
16. UACGCAGGUGGUUUUCCCCUGAUAGUGCUAAGGGGGCCUGGAAGUUUGGACUGGGCAGAGCUCAACACAGCGUGGCAAAGUGGCUGUGGCUAGACUGCCUCUCUGGGUUCCUCGUCACUCAGCAGGGCAUCUCUGAGAGAAAUGCC  1.13
17. UACGCAGGUGGUUUUCCCCUGAUAGUGCUAAGGGGGCCUGGAAGUUUGGACUGGGCAGAGCUCAACACAGCGUGGCAAGGUGGCUGUGGCUAGACUGCCUCUCUGGAUUCCUCGUCACUCAGCAGGGCAUCUCUGAGAGAAAUGCC  1.15
18. UACGCAGGUGGUUUUCCCCUGAUAGUGCUAAGGGGGCCUGGAAGUUUGGACUGGGCAGAGCUCAACACAGCGUGGCAAAGUGGCUGUGGCUAGACUGCCUCUCUGGAUUCCUCGUCACUCGGCAGGGCAUCUCUGAGAGAAAUGCC  1.28
19. UACGCAGGUGGUUUUCCCCUGAUAGUGCUAAGGGGGCCUGGAAGUUUGGACUGGGCAGAGCUCAACACAGCGUGGCGAAGUGGCUGUGGCUAGACUGCCUCUCUGGAUUCCUCGUCACUCAGCAGGGCAUCUCUGAGAGAAAUGCC  1.49
20. UACGCAGGUGGUUUUCCCCUGAUAGUGCUAAGGGGGCCUGGAAGUUUGGACUGGGCAGAGCUCAACACAGCGUGGCAUAGUGGCUGUGGCUAGACUGCCUCUCUGGAUUCCUCGUCACUCAGCAGGGCAUCUCUGAGAGAAAUGCC  1.9
